Series [1] is described as follows: not stated; oligomeric form and share of trimer/hexamer/HMW in the purified batch as listed in Table 1; the table does not say whether from analytical SEC (Figure 1A) or AF4-MALS.
The target in series [2] is Murine globular adiponectin (mgAd) (murine). The description is as above.
Series [3] concerns the target T1, C39S version of full length murine adiponectin (C39S mAd) (murine), Q60994.
T1 chain: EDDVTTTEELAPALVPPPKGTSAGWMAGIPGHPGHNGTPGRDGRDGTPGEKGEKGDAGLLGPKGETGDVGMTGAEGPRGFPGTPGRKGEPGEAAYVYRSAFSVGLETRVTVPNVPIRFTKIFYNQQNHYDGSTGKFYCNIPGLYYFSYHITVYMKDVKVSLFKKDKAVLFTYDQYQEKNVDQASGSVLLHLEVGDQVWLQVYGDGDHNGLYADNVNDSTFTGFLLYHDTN
The series is described as above. To be noted: remark: other sources report otherwise.

Series [4] deals with Q60994. The series is described as above.
Series [5] deals with the molecule itself. The series is described as above.
Series [6] deals with Q15848. The description is as above.
Series [7] deals with the molecule itself. In words: AF4-MALS; purified batch; 20 mM Tris-HCl pH 7.4, 100 mM NaCl, 1 mM CaCl2; self-association, size of the oligomer.

Several values for one entry are separate records, joined by “and”; a condition that tells them apart may be missing. Identical values can stand only once.

As for Murine globular adiponectin (mgAd), the % HMW in series [1] stood at 0%.

In series [2], “Murine globular adiponectin (mgAd) (domain or fragment)” had a % hexamer of -0% and a % trimer of 100%.

B1: C39S version of full length murine adiponectin (C39S mAd), Q60994 18-247 (natural protein)
chain: EDDVTTTEELAPALVPPPKGTSAGWMAGIPGHPGHNGTPGRDGRDGTPGEKGEKGDAGLLGPKGETGDVGMTGAEGPRGFPGTPGRKGEPGEAAYVYRSAFSVGLETRVTVPNVPIRFTKIFYNQQNHYDGSTGKFYCNIPGLYYFSYHITVYMKDVKVSLFKKDKAVLFTYDQYQEKNVDQASGSVLLHLEVGDQVWLQVYGDGDHNGLYADNVNDSTFTGFLLYHDTN
modifications: here or on the partner: detected proline hydroxylations at 47, 50, 56, 65, 79; detected lysine hydroxylations at 68, 71, 80, 104; detected proline hydroxylations at 47, 50, 56, 65, 79; detected lysine hydroxylations at 68, 71, 80, 104
Regarding B1, in series [3], the % hexamer was -0%, the % trimer is 100% and the stoichiometry N was found to be 3.

B2: Full length murine adiponectin (mAd) (protein)
chain: EDDVTTTEELAPALVPPPKGTCAGWMAGIPGHPGHNGTPGRDGRDGTPGEKGEKGDAGLLGPKGETGDVGMTGAEGPRGFPGTPGRKGEPGEAAYVYRSAFSVGLETRVTVPNVPIRFTKIFYNQQNHYDGSTGKFYCNIPGLYYFSYHITVYMKDVKVSLFKKDKAVLFTYDQYQEKNVDQASGSVLLHLEVGDQVWLQVYGDGDHNGLYADNVNDSTFTGFLLYHDTN
In the case of B2, the % HMW in series [4] came out at 1%.

B3: C39S version of full length murine adiponectin (C39S mAd) (protein)
chain: EDDVTTTEELAPALVPPPKGTSAGWMAGIPGHPGHNGTPGRDGRDGTPGEKGEKGDAGLLGPKGETGDVGMTGAEGPRGFPGTPGRKGEPGEAAYVYRSAFSVGLETRVTVPNVPIRFTKIFYNQQNHYDGSTGKFYCNIPGLYYFSYHITVYMKDVKVSLFKKDKAVLFTYDQYQEKNVDQASGSVLLHLEVGDQVWLQVYGDGDHNGLYADNVNDSTFTGFLLYHDTN
In series [4], B3 showed a % HMW of 0%.

B4: Full length murine adiponectin (mAd) (natural protein, UniProt Q60994 18-247, looked up)
chain: EDDVTTTEELAPALVPPPKGTCAGWMAGIPGHPGHNGTPGRDGRDGTPGEKGEKGDAGLLGPKGETGDVGMTGAEGPRGFPGTPGRKGEPGEAAYVYRSAFSVGLETRVTVPNVPIRFTKIFYNQQNHYDGSTGKFYCNIPGLYYFSYHITVYMKDVKVSLFKKDKAVLFTYDQYQEKNVDQASGSVLLHLEVGDQVWLQVYGDGDHNGLYADNVNDSTFTGFLLYHDTN
modifications: detected proline hydroxylations at 65, 79; detected lysine hydroxylations at 36, 68, 71, 80, 104
notes: murine adiponectin; coding region amplified from a mouse spleen cDNA library; the original signal peptide was replaced by the human CD33 signal peptide and the protein was secreted; The forward primer begins with catcatcat (three His codons) followed by gcc gaa gat gac gtt (A E D D V); Batch is a mixture of trimer and hexamer
For the molecule B4, in series [5], the “% hexamer” value amounted to 53%; the “% trimer” value worked out at 46%; the “stoichiometry N” value is 3 and 6.

B5: Mouse globular adiponectin with an amino terminal FlagTag (FLAG-mgAd) (domain or fragment, murine, UniProt Q60994 109-247, looked up)
chain: EAAYMYRSAFSVGLETRVTVPNVPIRFTKIFYNQQNHYDGSTGKFYCNIPGLYYFSYHITVYMKDVKVSLFKKDKAVLFTYDQYQEKNVDQASGSVLLHLEVGDQVWLQVYGDGDHNGLYADNVQDSTFTGFLLYHDTN
notes: N233Q to prevent N-glycosylation; the methods mention only N233Q; Total mass printed: 17054 Da; also called FLAG tagged mouse globular adiponectin; source: S. cerevisiae ME1719, supernatant, purified (Q Sepharose FF, Superdex 200)
B5: in series [5], the “% hexamer” value was determined as 15% and the “% trimer” value was determined as 85%. For the same molecule, the % HMW in series [4] was determined as 0%.

B6: Full length human adiponectin (hAd), high molecular weight form (protein)
chain: ETTTQGPGVLLPLPKGACTGWMAGIPGHPGHNGAPGRDGRDGTPGEKGEKGDPGLIGPKGDIGETGVPGAEGPRGFPGIQGRKGEPGEGAYVYRSAFSVGLETYVTIPNMPIRFTKIFYNQQNHYDGSTGKFHCNIPGLYYFAYHITVYMKDVKVSLFKKDKAMLFTYDQYQENNVDQASGSVLLHLEVGDQVWLQVYGEGERNGLYADNDNDSTFTGFLLYHDTN
Consider B6, for which, in series [6], the % HMW amounted to 98%.

B7: Full length human adiponectin (hAd), high molecular weight form (natural protein, UniProt Q15848 19-244, looked up)
chain: ETTTQGPGVLLPLPKGACTGWMAGIPGHPGHNGAPGRDGRDGTPGEKGEKGDPGLIGPKGDIGETGVPGAEGPRGFPGIQGRKGEPGEGAYVYRSAFSVGLETYVTIPNMPIRFTKIFYNQQNHYDGSTGKFHCNIPGLYYFAYHITVYMKDVKVSLFKKDKAMLFTYDQYQENNVDQASGSVLLHLEVGDQVWLQVYGEGERNGLYADNDNDSTFTGFLLYHDTN
modifications: detected proline hydroxylations at 71, 76, 95; detected lysine hydroxylations at 33, 65, 68, 77, 101 (glycosylated hydroxylysyl)
notes: human adiponectin; coding region amplified from Human Adipocyte Marathon Ready cDNA; the original signal peptide was replaced by the human CD33 signal peptide and the protein was secreted; also called HMW hAd; HMW adiponectin; source: HMW form isolated; copies: 18
For B7, the “stoichiometry N” value in series [7] was found to be 18. For the same molecule, in series [5], the “% hexamer” value turned out to be 2% and the “% trimer” value turned out to be 0%.

For orientation: stoichiometry N means a count of units in the complex or per binding partner.

(Values after paper PMC3462199, “Recombinant Adiponectin Does Not Lower Plasma Glucose in Animal Models of Type 2 Diabetes” (PLoS ONE, 2012).)
